Measured values taken from publication PMC4648099.
“And” between values parts separate entries of the source, which are not always exact repeats. Equal values may be shown once.

Target: thrombin (alpha-thrombin) (UniProt P00734+P00734)
Assay: competition (FAM fluorescence displacement)
Conditions: G8 replaced by 5-nitroindole (N at position 8); Fluorescence assays: 10 mM sodium cacodylate pH 7.2, 100 mM KCl, 20 °C, 20 nM FAM-aptamer (100 nM thrombin in displacement); EMSA: 1xTBE pH 8.3, 100 mM KCl …

Sequence: GGTTGGTNTGGTTGG [TBA-N8]
- Kd: 2.3 nM and 1.7 nM
